Results published in patent US20090246142A1, “Triggered Self-Assembly of Nanoparticles In Vivo” (MASSACHUSETTS INSTITUTE OF TECHNOLOGY, priority 2006, published 2009).
Square brackets hold non-standard residues; d marks the D form. pY = N[C@@H](Cc1ccc(OP(=O)(O)O)cc1)C(=O)O; Ahx = NCCCCCC(=O)O

Experiments:
Crk SH2 = Crk SH2 (Homo sapiens, UniProt P46108); settings: free peptide; cited from earlier work
Crk SH2 domain = biological target: T1, Crk SH2 domain (Homo sapiens, UniProt P46108); assay: SH2-binding peptide-mediated TSAC assembly, dynamic light scattering
T1 construct: The Crk SH2 domain was genetically modified to contain an N-terminal cysteine; GST (N, cleaved yes); made in house; host or cells: E. coli BL21-Gold(DE3)

Abl kinase = assay: Kinase-directed TSAC assembly, MRI T2 mapping; type: biochemical; settings: free phosphopeptide added to Abl kinase-assembled TSACs
Description: Kinase reaction was initiated by adding indicated amount of Abl kinase (New England Biolabs). TSAC assemblies were characterized by DLS over time or MRI.
All TSAC solutions were prepared in final concentration of 10 μg Fe/ml (12 nM TSAC concentration) in 70 μl of kinase reaction buffer. TSAC mixtures were incubated at 30° C. for 3 hours after kinase additions (0, 0.05, 0.1, 0.2, 0.5 U/μl), and then MRI images were taken using a 4.7 T Bruker magnet (7 cm bore) using T2-mapping Carr-Purcell-Meiboom-Gill (CPMG) pulse sequence. To reverse assembly, 4 U/μl YOP phosphatase or 0.1 mM free pY-peptide was added to an assembled TSAC solution containing 0.2 U/μl Abl kinase. The MRI image was taken after 10 minutes at room temperature.

T1 sequence (P46108 13-118 limits assumed): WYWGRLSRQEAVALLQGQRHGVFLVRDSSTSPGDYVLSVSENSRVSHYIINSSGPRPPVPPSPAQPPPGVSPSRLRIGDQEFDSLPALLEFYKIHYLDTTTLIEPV
Chain of Crk SH2 (P46108 13-118 limits assumed): as above
Chain of Abl kinase (P00521 128-379): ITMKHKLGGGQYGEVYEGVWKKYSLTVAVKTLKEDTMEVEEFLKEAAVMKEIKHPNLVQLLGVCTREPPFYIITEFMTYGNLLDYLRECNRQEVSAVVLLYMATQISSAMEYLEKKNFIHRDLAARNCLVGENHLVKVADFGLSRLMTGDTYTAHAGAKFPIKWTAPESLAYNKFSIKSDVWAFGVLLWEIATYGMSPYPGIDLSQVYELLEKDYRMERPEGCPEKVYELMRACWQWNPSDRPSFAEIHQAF

Substance | binding affinity to Crk SH2 (Crk SH2) | reversal of pY TSAC / SH2 TSAC assembly by added free peptide (Crk SH2 domain; 200 μM free peptide added after 10 minute incubation) | effect of free peptide on pY TSAC / SH2 TSAC assembly (Crk SH2 domain; 200 μM free peptide present) | effect of free substrate on kinase-directed T2 enhancement (Abl kinase)
TAMRA-C(Ahx)QpYDHPNI-CONH2 ({TAMRA}-C[Ahx]Q[pY]DHPNI-NH2; not fully specified) [free pY peptide] | low μM | rapidly disassembled | inhibited | –
TAMRA-(Ahx)SRVGEEEHVpYSFPNKQKSAEC-CONH2 [free pY-Abl substrate] | – | – | – | lost
